Experiments:
APOBEC3G D316R/D317R = APOBEC3G D316R/D317R (Homo sapiens, UniProt Q9HC16 Q9HC16:1-384, D316R,D317R); assay: FP; higher binding than wt; 5 mM MgCl2, 37 C; settings: tags: Sf9, pAcG2T; label: internal fluorescein-dT
Description: Apo3G-DNA binding were monitored by changes in steady state fluorescence depolarization (rotational anisotropy). Reaction mixtures (70 μl), containing an F-labeled DNA ([…]) in buffer (50 mM HEPES, pH 7.3, 1 mM DTT and 5 mM MgCl₂) and varying concentration of 0 to 500 nM Apo3G, were incubated at 37° C. The sequence of the ssDNA is: tta gat gag tgt aa(FdT) gtg ata tat gtg tat. Rotational anisotropy was measured as described previously (Chelico et al., 2006). The fraction of DNA bound to protein was determined as described previously (Bertram et al., 2004).

[1] = target: APOBEC3G full-length (E. coli) (Homo sapiens, UniProt Q9HC16 Q9HC16:1-384); assay: processive deamination with bias to the 5' CCC; settings: tags: GST, pGEX-6P1, E. coli; label: internal fluorescein-dT
Excerpt: (§1) FIG. 1B is Apo3G processivity and 3′_{—}5′ deamination bias was characterized on an 85-nt internally F-labeled ssDNA with two CCC motifs 30-nt apart. Single deaminations of the 5′C and 3′C that are spaced by 30-nt on the ssDNA substrate are detected as the appearance of labeled 67- and 48-nt fragments, respectively; double deamination of both Cs on the same molecule results in 30-nt labeled fragment (5′C and 3′C). Substrate usage (%) is less than 15% to maintain single-hit kinetics. The ‘Processivity factor’ is defined as the ratio of the observed fraction of double deaminations (occurring at both 5′C and 3′C on the same molecule) to the predicted fraction of independent double deaminations (Chelico et al., 2006). […] The deamination bias is measured by the ratio of 5′C/3′C deaminations. Deamination patterns are shown using full length Apo3G (lane 2) and Apo3G-CD2 (lanes 3, 4). As a control, no Apo3G or Apo3G-CD2 enzyme was added in lane 1.
(§2) Apo3G (0.024-μM) was allowed to react with 500 nM FdT incorporated ssDNA for […] and subsequently treated with UDG and resolved on 16% UREA PAGE for analysis as described previously¹⁰. Specific activity, measured as fmoles substrate deaminated per pg enzyme per minute, was calculated from the percent deamination of an ssDNA substrate over a range of enzyme concentrations. […]

APOBEC3G-CD2 = APOBEC3G-CD2 (Homo sapiens, UniProt Q9HC16 Q9HC16:197-380); assay: about 2-fold decrease in processivity and polarity; settings: tags: GST removed by PreScission protease; label: internal fluorescein-dT
Excerpt: as §1, §2

APOBEC3G-CD2, sequence (Q9HC16 197-380, one chain of several): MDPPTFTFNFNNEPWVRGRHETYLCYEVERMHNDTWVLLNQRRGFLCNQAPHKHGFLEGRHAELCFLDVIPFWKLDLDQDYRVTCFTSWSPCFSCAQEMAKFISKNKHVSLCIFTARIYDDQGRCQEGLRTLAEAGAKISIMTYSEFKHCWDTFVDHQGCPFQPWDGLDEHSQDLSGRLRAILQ
APOBEC3G full-length (E. coli), sequence (Q9HC16 whole entry, the tested form may be a part, one chain of several): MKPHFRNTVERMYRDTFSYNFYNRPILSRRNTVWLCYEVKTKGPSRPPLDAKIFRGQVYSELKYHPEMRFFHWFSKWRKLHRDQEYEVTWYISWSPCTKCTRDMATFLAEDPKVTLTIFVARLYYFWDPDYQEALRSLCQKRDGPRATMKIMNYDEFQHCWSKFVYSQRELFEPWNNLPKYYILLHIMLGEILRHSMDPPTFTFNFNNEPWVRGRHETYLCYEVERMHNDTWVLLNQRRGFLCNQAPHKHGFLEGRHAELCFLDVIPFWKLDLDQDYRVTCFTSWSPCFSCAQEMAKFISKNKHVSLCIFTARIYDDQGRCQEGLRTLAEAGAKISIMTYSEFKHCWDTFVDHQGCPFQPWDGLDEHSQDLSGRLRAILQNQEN
APOBEC3G D316R/D317R, sequence (Q9HC16 whole entry D316R/D317R, one chain of several): as the sequence (Q9HC16 whole entry, the tested form may be a part, one chain of several) above, with D316R, D317R counted along it

TTAGATGAGTGTAATGTGATATATGTGTAT (ssDNA, [15 (fluorescein-dT)]) [anisotropy ssDNA]
binding signal (APOBEC3G D316R/D317R): 2 fold of wt

B1: 85-nt processivity ssDNA (ssDNA)
DNA: AAAGAGAAAGTGATACCCAAAGAGTAAAGTTAGATAGAGAGTGATACCCAAAGAGTAAAGTTAGTAAGATGTGTAAGTATGTTAA
modifications: [31 (FdT = fluorescein-dT, written as T)]
binding result [1]: binds
binding result (APOBEC3G-CD2): binds
